Tests used:
3XFLAG-CDK4 R24H = 3XFLAG-CDK4 R24H (human, UniProt P11802 1-303, R24H); assay: affinity purification with mass spectrometry
3XFLAG-CDK4 R24C = 3XFLAG-CDK4 R24C (human, UniProt P11802 1-303, R24C); assay: affinity purification with mass spectrometry
Chain of 3XFLAG-CDK4 R24C (P11802 whole entry R24C): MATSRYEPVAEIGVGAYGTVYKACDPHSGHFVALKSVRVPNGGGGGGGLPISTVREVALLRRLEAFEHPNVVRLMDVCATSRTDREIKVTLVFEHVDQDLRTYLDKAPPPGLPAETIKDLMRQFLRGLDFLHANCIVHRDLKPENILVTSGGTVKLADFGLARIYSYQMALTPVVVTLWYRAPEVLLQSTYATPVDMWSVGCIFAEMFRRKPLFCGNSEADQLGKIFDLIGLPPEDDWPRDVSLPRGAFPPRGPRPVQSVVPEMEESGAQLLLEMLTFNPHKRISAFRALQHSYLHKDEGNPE

Chain of 3XFLAG-CDK4 R24H (P11802 whole entry R24H): as the sequence (P11802 whole entry R24C) above, with C24H counted along it

B1: CDC37 co-chaperone (natural protein)
chain: MVDYSVWDHIEVSDDEDETHPNIDTASLFRWRHQARVERMEQFQKEKEELDRGCRECKRKVAECQRKLKELEVAEGGKAELERLQAEAQQLRKEERSWEQKLEEMRKKEKSMPWNVDTLSKDGFSKSMVNTKPEKTEEDSEEVREQKHKTFVEKYEKQIKHFGMLRRWDDSQKYLSDNVHLVCEETANYLVIWCIDLEVEEKCALMEQVAHQTIVMQFILELAKSLKVDPRACFRQFFTKIKTADRQYMEGFNDELEAFKERVRGRAKLRIEKAMKEYEEEERKKRLGPGGLDPVEVYESLPEELQKCFDVKDVQMLQDAISKMDPTDAKYHMQRCIDSGLWVPNSKASEAKEGEEAGPGDPLLEAVPKTGDEKDVSV
fold increase against CDK4 WT (3XFLAG-CDK4 R24H): ≥ 3.9 fold
fold increase against CDK4 WT (3XFLAG-CDK4 R24C): ≥ 3.9 fold

B2: HSP90AB1 (natural protein)
chain: not shown
fold increase against CDK4 WT (3XFLAG-CDK4 R24H): ≥ 3 fold
fold increase against CDK4 WT (3XFLAG-CDK4 R24C): ≥ 3 fold

— paper PMC3882083 (Nature methods, 2013)
